In patent US20220380473A1, “ANTI-GAL3 ANTIBODIES AND USES THEREOF” (TrueBinding, Inc., priority 2019, published 2022):

Tests used:
Assay type in all cases: in vivo
[1] = system: MC38 murine colon adenocarcinoma cells; test: Primary mouse MC38 colon tumor model
Method: On the day of tumor implantation, MC38 murine colon adenocarcinoma cells were collected, washed and resuspended in PBS. Mice were anesthetized by inhalation anesthetic (3 to 5% Isoflurane in medical grade air). 5×10^5 cells in 0.1 mL PBS were subcutaneously injected into the right flank of mice by using a syringe with a 25-ga needle. On day 7, the tumor volumes were measured and mice were randomly assigned into two groups (n=8). […] The tumor volumes and body weights were monitored twice per week. The animals were humanely sacrificed when tumor volume reached 3000 mm^3. Results were expressed as mean±SEM.

[2] = system: α-smooth muscle actin (SMA) and fibronectin; test: UUO mouse kidney fibrosis, western blot of fibrosis markers (Example 19); details: 10 mg/kg i.p., 14 day treatment, vs IgG2b control
Method: Unilateral […] obstruction (UUO) mouse model was created with 8-week old male C57BL/6 mice. The animals were randomly assigned into three groups (n=5); sham, mouse IgG2b control, and IMT001. […] On day 0, surgery was performed to ligate the left ureter in each animal. Following the surgery, the animals were administrated intraperitoneally either 10 mg/kg of mIgG2b (BioXCell) or IMT001 on day 1, 5 and 10. The animals in the sham group were left untreated. On day 4, 8 and 15 the animals were humanely sacrificed and left kidney tissues were surgically removed and snap frozen for western blot analysis.
30 mg snap frozen kidney tissue from 14 day treatment UUO group was homogenized in 500 μl of RIPA buffer (Thermo Scientific). The homogenate was left on ice for 10 minutes and then centrifuged at 12000 rpm for 10 min at 4° C. in 1.5 mL Eppendorf tubes. The supernatant containing protein was collected and was quantified by A280 absorbance with a Nanodrop (ThermoFisher). Protein samples were boiled in 4× sample Buffer containing β-mercaptoethanol (Bio-Rad) for 10 min. […] The membranes were washed three times with PBST and protein bands were detected by enhanced chemiluminescence using standard ECL detection methods as recommended by the manufacturer (Bio-Rad) and developed. […]

[3] = system: MCD mouse model of liver fibrosis; test: Methionine-choline deficient (MCD) mouse model of liver fibrosis
Description: To further investigate the ability of GAL3-TIM3 blocking antibodies to influence liver fibrosis, the methionine-choline deficient (MCD) mouse model of liver fibrosis was employed. Briefly, Six-week-old male C57Bl/6 mice (Jackson Laboratory) were fed either a normal diet (Envigo, #2020X; n=5 mice); or MCD diet (Fisher Scientific, #MP296043910, n=25) for 8 weeks and continuously through the remainder of the study. Mice were divided into three groups (7 mice each) and randomized based on ALT score. Group 1 and 2 were treated mouse anti-mIgG2aLala isotype control (mISO, 10 mg/kg) or mouse anti-Gal3 antibody (mIMT001, 10 mg/kg) twice a week of IP injection for 4 weeks, at which time animals were sacrificed and liver specimens were collected, fixed in 4% paraformaldehyde (Electron Microscopy Sciences, Cat #15710S) for 24 hours, transferred to 70% EtOH for 72 hours, and samples were subsequently embedded in paraffin. […] Brightfield images were acquired under a Revolve microscope (Discover Echo, Inc.).
To assess fibrosis in these specimens, tissue sections were evaluated for the deposition of fibrotic collagen deposits by picosirius red staining. Briefly, after deparaffinization, liver specimens from isotype control- or IMT001-treated MCD mice were rehydrated in serial ethanol baths, sections were stained in 0.01% Fast green FCF Solution (Cat #1.04022.0025 MilliporeSigma) in saturated picric aqueous solution for 15 minutes at room temperature, followed by 1 h incubation at room temperature in 0.04% Fast green FCF/0.1% Sirius red in saturated picric aqueous solution, prior to their dehydration, clearing and mounting. Images were quantitated using ImageJ software (Rasband, W. S., ImageJ, U. S. National Institutes of Health, Bethesda, Md., USA, world wide web.imagej.nih.gov/ij/)

[4] = 10 mg/kg twice a week IP for 4 weeks

B1: IMT001: anti-Gal3 monoclonal antibody (Immutics); printed as mIMT001 (IMT001), murine (antibody, V domains shown)
VH: QIQLVQSGPELKKPGETVKISCKASGYTFTNYGMNWVKQAPGKGLKWMGWINTNTGEPTYVEEFKGRFAFSLETSASTAYLQINNLKNEDTATYFCAPYDNFFAYWGQGTLVTVSA
VL: DIVITQDELSNPVTSGESVSISCRSSKSLLYKDGKTYLNWFLQRPGQSPQLLIYLMSTHASGVSDRFSGSGSGTDFTLEISRVKAEDVGVYYCQQLVDYPLTFGAGTKLELK
[1]; 10 mg/Kg i.p., day 24, vs isotype control
  reduction of tumor burden: about 33%
[1]; vs isotype control
  effect on tumor size: much reduced tumor size
[2]
  expression of fibrotic markers a-SMA and fibronectin in kidney: reduced expression of both fibrotic markers
[3]; [4]
  apoptotic ballooning cells, image-based quantification: 0.98
  infiltrating lobular immune cells, image-based quantification: 0.73
  steatosis, image-based quantification: 1
[3]; integrated score
  NAS score: 2.72
[3]; liver sections
  picosirius red staining, % of the tissue area: 1.25%
[3]; vs control-treated
  reduction of ballooning: 27%
  reduction of lobular immune cells: 59%
  reduction of steatosis: 15%
[3]; vs isotype control
  reduction of NAS score: 43%
  reduction of picosirius red staining: 71%
